Data set [1] concerns PDCD-1 megaTAL parent (Artificial Sequence). The data set is described as follows: cell_activity. The note with it: primary human T cells, mRNA electroporation, TIDE.
For data set [2], the system named is PDCD-1 megaTAL thermostable variant (Artificial Sequence). As to the kind of experiment: cell_activity. The note with it: nearly 80%; primary human T cells, mRNA electroporation, TIDE.

Consider PDCD-1 target site, for which the activity in data set [1] was less than 20 % editing; in data set [2] it was 80 % editing.

The record behind these values is US20220119784.
